Values of other authors in paper PMC6640714.

Molecular target: FcγRIa (Homo sapiens) (UniProt P12314)
Experiment: given as Ka

Sequence of FcγRIa (Homo sapiens) (P12314 16-374): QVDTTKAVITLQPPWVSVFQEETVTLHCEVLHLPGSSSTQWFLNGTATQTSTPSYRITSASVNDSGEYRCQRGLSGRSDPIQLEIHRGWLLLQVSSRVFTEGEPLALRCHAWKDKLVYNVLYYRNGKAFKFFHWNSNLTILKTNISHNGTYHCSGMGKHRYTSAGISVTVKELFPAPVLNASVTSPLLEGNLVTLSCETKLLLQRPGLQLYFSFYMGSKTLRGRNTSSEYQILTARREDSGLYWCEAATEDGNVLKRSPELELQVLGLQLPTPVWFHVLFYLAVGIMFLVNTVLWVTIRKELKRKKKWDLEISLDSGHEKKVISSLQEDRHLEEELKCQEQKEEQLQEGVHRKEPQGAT
Sequence of IgG4 (P01861 whole entry): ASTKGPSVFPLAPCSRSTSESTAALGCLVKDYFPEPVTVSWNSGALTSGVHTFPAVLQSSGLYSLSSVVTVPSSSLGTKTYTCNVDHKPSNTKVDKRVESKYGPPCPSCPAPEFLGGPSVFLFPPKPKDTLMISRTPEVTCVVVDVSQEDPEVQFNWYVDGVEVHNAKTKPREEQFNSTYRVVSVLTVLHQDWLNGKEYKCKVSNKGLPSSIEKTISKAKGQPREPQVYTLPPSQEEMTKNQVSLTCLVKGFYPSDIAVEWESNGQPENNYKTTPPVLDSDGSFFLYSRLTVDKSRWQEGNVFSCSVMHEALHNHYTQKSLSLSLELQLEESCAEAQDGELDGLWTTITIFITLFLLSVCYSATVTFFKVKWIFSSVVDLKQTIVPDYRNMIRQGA

- Kd: 29.4 nM
Substance: IgG4 (from UniProt P01861)
